These results are taken from article PMC4770091, “Structural hot spots for the solubility of globular proteins” (Nature Communications, 2016).

The series concerns the molecule itself. The series is described as follows: SEC; lysate of transfected HeLa cells (RIPA buffer) on Superdex S200 HR10/30 in hypotonic buffer (20 mM HEPES, 10 mM KCl, 1 mM MgCl2, 1 mM EDTA, 1 mM EGTA, 1 mM DTT, pH 7.5); fractions precipitated with trichloroacetic acid and blotted with anti-myc; molecular weight markers as standard. For orientation: SEC sorts molecules by how far they enter the pores of the column.

Broadly, the stoichiometry N is the number of molecules, sites or subunits per partner or assembly.

B1: human α-galactosidase (α-Gal A), wild type (enzyme, UniProt P06280 32-429, looked up)
chain: LDNGLARTPTMGWLHWERFMCNLDCQEEPDSCISEKLFMEMAELMVSEGWKDAGYEYLCIDDCWMAPQRDSEGRLQADPQRFPHGIRQLANYVHSKGLKLGIYADVGNKTCAGFPGSFGYYDIDAQTFADWGVDLLKFDGCYCDSLENLADGYKHMSLALNRTGRSIVYSCEWPLYMWPFQKPNYTEIRQYCNHWRNFADIDDSWKSIKSILDWTSFNQERIVDVAGPGGWNDPDMLVIGNFGLSWNQQVTQMALWAIMAAPLFMSNDLRHISPQAKALLQDKDVIAINQDPLGKQGYQLRQGDNFEVWERPLSGLAWAVAMINRQEIGGPRSYTIAVASLGKGVACNPACFITQLLPVKRKLGFYEWTSRLRSHINPTGTVLLQLENTMQMSLKDLL
notes: human α-galactosidase A, full-length cDNA NM_000169 cloned in pcDNA4/TO/myc-His; The vector pcDNA4/TO/myc-His may also add a His tag after the Myc tag; also called WT α-Gal; Agal; source: HeLa, transiently transfected, in lysate (RIPA buffer); not shown: Myc, C-terminal, kept
For the protein B1, the “stoichiometry N” value is 2.
